B1: U6.mi405F: mi405 with one G at 5' end and 16 mer 3' flanking sequence with single CNNC motif (nucleic acid)
DNA: ACGCCGCCATCTCTAGGCCCGCGCCGGCCCCCTCGCACAGACTTGTGGGAGAAGCTCGGCTACTCCCCTGCCCCGGTTAATTTGCATATAATATTTCCTAGTAACTATAGAGGCTTAATGTGCGATAAAAGACAGATAATCTGTTCTTTTTAATACTAGCTACATTTTACATGATAGGCTTGGATTTCTATAAGAGATACAAATACTAAATTATTATTTTAAAAAACAGCACAAAAGGAAACTCACCCTAACTGTAAAGTAATTGTGTGTTTTGAGACTATAAATATCCCTTGGAGAAAAGCCTTGTTTGCTCGAGTGAGCGATCCAGGATTCAGATCTGGTTTCTGTAAAGCCACAGATGGGAAACCAGATCTGAATCCTGGACTGCCTACTAGTAATTCTTCGATTCTGCTTTTTT
B2: U6.mi405H: mi405 construct with altered flanking sequences (nucleic acid)
DNA: ACGCCGCCATCTCTAGGCCCGCGCCGGCCCCCTCGCACAGACTTGTGGGAGAAGCTCGGCTACTCCCCTGCCCCGGTTAATTTGCATATAATATTTCCTAGTAACTATAGAGGCTTAATGTGCGATAAAAGACAGATAATCTGTTCTTTTTAATACTAGCTACATTTTACATGATAGGCTTGGATTTCTATAAGAGATACAAATACTAAATTATTATTTTAAAAAACAGCACAAAAGGAAACTCACCCTAACTGTAAAGTAATTGTGTGTTTTGAGACTATAAATATCCCTTGGAGAAAAGCCTTGTTTGACCGTTTAAACTCGAGTGAGCGATCCAGGATTCAGATCTGGTTTCTGTAAAGCCACAGATGGGAAACCAGATCTGAATCCTGGACTGCCTACTAGAGCGCACGCCAGTTTTTT
B3: U6.mi405G: mi405 construct with altered flanking sequences (nucleic acid)
DNA: ACGCCGCCATCTCTAGGCCCGCGCCGGCCCCCTCGCACAGACTTGTGGGAGAAGCTCGGCTACTCCCCTGCCCCGGTTAATTTGCATATAATATTTCCTAGTAACTATAGAGGCTTAATGTGCGATAAAAGACAGATAATCTGTTCTTTTTAATACTAGCTACATTTTACATGATAGGCTTGGATTTCTATAAGAGATACAAATACTAAATTATTATTTTAAAAAACAGCACAAAAGGAAACTCACCCTAACTGTAAAGTAATTGTGTGTTTTGAGACTATAAATATCCCTTGGAGAAAAGCCTTGTTTGACCGTTTAAACTCGAGTGAGCGATCCAGGATTCAGATCTGGTTTCTGTAAAGCCACAGATGGGAAACCAGATCTGAATCCTGGACTGCCTACTAGAGAATTCTTCGATTCTGCTTTTTT

Assays:
[1] = tested on: DUX4 ORF (RenLuc-DUX4 ORF); test: Dual-luciferase assay, RenLuc-DUX4 ORF reporter co-transfected with miDUX4 plasmids in HEK293 cells; type: cell-based, human; details: for reduction of Renilla luciferase activity: normalized to U6.miGFP
Summary of the method: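 HEK293 cells were co-transfected by lipofection with a psiCheck2 reporter carrying the DUX4 ORF as the Renilla luciferase 3′UTR and U6-driven miDUX4 plasmids, at increasing reporter:miRNA molar ratios. Renilla/Firefly ratio was read 24 h or 48 h post-transfection, with Firefly as transfection normaliser. Values are means ± SEM of triplicates over 3 experiments.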

[2] = tested on: DUX4-induced muscle toxicity; test: mi405 constructs (scAAV6) co-injected with AAV.CMV.DUX4-FL in mouse TA, H&E; type: in vivo, mouse (C57BL/6); details: scAAV6, 5e09 DRP co-injected with 5e09 DRP AAV.CMV.DUX4-FL, 8 weeks
Method: AAV Vector Delivery to Mice. (See also FIGS. 15A-B and 32A-B.) For determining bioactivity, 6- to 9-week-old C57BL/6 male and female mice received direct 35 μL IM injections into the TA. Mice received adeno-associated virus scAAV6.CMV.DUX4-FL at 5×10^9 DNase-resistant particles (DRP) co-injected with scAAV6.CMV.eGFP at 1×10^10 DRP, and a contralateral co-injection of scAAV6.CMV.DUX4-FL at 1×10^9 DRP or 5×10^9 DRP and scAAV6.U6.mir-675 at 5×10^10 DRP. To test toxicity of mir-675, the tibialis anterior (TA) was intramuscularly injected with increasing doses of scAAV6.U6.mir-675 at 5×10^10 DRP and 1×10^11 DRP, and injected contralateral TA with saline. To test mi405 toxicity, the TA was intramuscularly injected with 5×10^8 DRP, 5×10^9 DRP and 5×10^10 DRP of scAAV6.U6.mi405F, scAAV6.U6.mi405G or scAAV6.U6.mi405H and injected contralateral TA with saline. To test mi405 inhibition efficiency, the TA was co-injected with scAAV6.CMV.DUX4-FL at 5×10^9 DRP and scAAV6.U6.mi405F, G or H at 5×10^8 DRP, 5×10^9 DRP or 5×10^10 DRP. For this, a contralateral injection of either scAAV6.U6.mi405F, G or H or of scAAV6.CMV.DUX4-FL at 5×10^9 DRP was carried out. For mi405, all injections were compared to scAAV6.U6.mi405. Muscles were harvested at 2, 4 or 8 weeks post-injection. All animal studies were performed according to the NIH Guide for the Care and Use of Laboratory Animals.
Histology. (See also FIGS. 15A-B and 32A-B.) Dissected TA muscles were placed in O.C.T. Compound (Tissue-Tek) and frozen on liquid nitrogen-cooled isopentane. Cryosections were cut at 10 μm and then stained with H&E following standard protocols [Harper et al., Nat Med (2002) 8(3):253-61].
U6.mi405, U6.mi405F, U6.mi405G and U6.mi405H were co-injected using scAAV6 with AAV.CMV.DUX4-FL at equivalent doses (5e09 DNase Resistant Particles (DRP)) in the TA of C57BL/6 mice. This experiment was performed to investigate the efficiency of the four mi405 constructs to eliminate DUX4-induced muscle toxicity in vivo at doses equivalent to that of AAV.CMV.DUX4-FL. Previously, Wallace et al. [Wallace et al, Ann. Neurol. […]

[3] = DUX4:mi405 molar ratio 2 to 1, HEK293, 24 h
[4] = DUX4:mi405 molar ratio 12 to 1, HEK293, 24 h

| Molecule | reduction of relative Renilla luciferase activity ([1]; 1:4 DUX4:mi405 molar ratio, HEK293, 24 h, normalized to miGFP) [%] | reduction of Renilla luciferase activity [1, 3] [%] | decrease of relative Renilla luciferase activity compared to U6.mi405 ([1]; DUX4:mi405 molar ratio 8:1, 24 h) [%] | reduction of Renilla luciferase activity [1, 4] [%] | decrease of relative Renilla luciferase activity compared to U6.mi405 ([1]; DUX4:miDUX4 molar ratio 1:1) [%] | decrease of relative Renilla luciferase activity compared to U6.mi405 ([1]; DUX4:miDUX4 molar ratio 1:2) [%] | decrease of relative Renilla luciferase activity compared to U6.mi405 ([1]; DUX4:miDUX4 molar ratio 1:3) [%] | decrease of relative Renilla luciferase activity compared to U6.mi405 ([1]; DUX4:miDUX4 molar ratio 1:4) [%] | relative Renilla luciferase activity reached ([1]; DUX4:miDUX4 molar ratio 8:1) [%] | more efficient than U6.mi405 in reducing relative Renilla luciferase activity ([1]; DUX4:miDUX4 molar ratio 40:1) [%] | efficiency in eliminating DUX4-induced muscle toxicity compared to mi405 [2] | additional reduction of Renilla luciferase activity compared to U6.mi405F ([1]; DUX4:mi405 molar ratio 12 to 1) [%] |
| --- | --- | --- | --- | --- | --- | --- | --- | --- | --- | --- | --- | --- |
| B1 | 89±1 | 77±1 | 48±6 | 45±4 | 33±2 | 32±2 | 34±1 | 32±1 | 38±2 | 13±2 | no enhanced inhibition efficiency in vivo when compared to mi405 | – |
| B2 | – | 80±1 | – | 58±2 | – | – | – | – | – | – | more efficient than mi405 | 25±6 |
| B3 | – | 81±1 | – | 59±2 | – | – | – | – | – | – | more efficient than mi405 | 26±5 |

Source: patent publication US20240093191A1, “COMPOSITIONS AND METHODS FOR TREATING DISEASE ASSOCIATED WITH DUX4 OVEREXPRESSION” (RESEARCH INSTITUTE AT NATIONWIDE CHILDREN'S HOSPITAL, priority 2021, published 2024)
